Three molecules from patent KR20140018819A (dated 2014) can be followed below.

Where a chain is given by its changes, count along the chain named.

The test concerns the target T1, TM4SF5 (transmembrane 4 L six family member 5) 단백질 (human, UniProt O14894 1-197).
T1 sequence (looked up): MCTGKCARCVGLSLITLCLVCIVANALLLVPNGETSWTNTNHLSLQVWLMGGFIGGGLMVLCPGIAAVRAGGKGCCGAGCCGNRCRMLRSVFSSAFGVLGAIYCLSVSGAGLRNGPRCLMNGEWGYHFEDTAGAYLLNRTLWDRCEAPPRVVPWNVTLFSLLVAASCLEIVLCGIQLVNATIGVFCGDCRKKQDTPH
As to the kind of experiment: cell-based or functional assay.

B1: 항-TM4SF5 항체 #1 (scFv-Fc) (Fc fusion)
VH: EVQLQQFGAELVRPGASVTLSCKASGYTFTDYEMHWVKQTPVHGLEWIGAIDPETGGTAYNQKFKGKAILTADKSSSTAYMELRSLTSEDSAVYFCARLTLFYGNYDWPFDVWGTGTSVTVSS
VL: DIVMTQSQKFMSTSVGDRVSITCKASQNVRTAVAWYQQKPGQSPKLLIYWASTRHTGVPDRFTGSGSGTDFTLTISNVQSEDLADYFCQQYSSYPFTFGSGTKLEIK
Take B1: the “간암세포주의 침윤 억제 (Transwell assay, Tp 세포, 항체 20㎍/㎖, 48시간)” value came out at 83%.

B2: 항-TM4SF5 항체 #27 (scFv-Fc) (Fc fusion)
VH: QVQLQQFGAELVRPGASVTLSCKASGYTFTDYEMHWVKQTPVHGLEWIGAIDPETGGTAYNQKFKGKAILTADKSSSTAYMELRSLTSEDSAVYYCTRPYLGYWGQGTTVTVSS
VL: DAVVTQTPLSLPVSLGDQASISCRSSQSLVHSNGNTYLHWYLQKPGQSPKLLIYKVSNRFSGVPDRFSGSGSGTDFTLKISRVEAEDLGVYYCFQGSHIPLTFGAGTKLELK
With B2, the “간암세포주의 침윤 억제 (Transwell assay, Tp 세포, 항체 20㎍/㎖, 48시간)” value stood at 56%.

B3: 항-TM4SF5 항체 #79 (scFv-Fc) (Fc fusion)
VH: B2 VH with Q1G, F7S, T19K, R98V, P99Y, Y100G, G102A, T109L, S114A
VL: B2 VL with A2V, V4M, Y92F, F94S, G96N, S97T, I99V, L101Y, A105G
For the molecule B3, the “간암세포주의 침윤 억제 (Transwell assay, Tp 세포, 항체 20㎍/㎖, 48시간)” value is 49%.
